Experimental data: US20020098523A1 (CAMBRIDGE ANTIBODY TECHNOLOGY, published 2002)

B1: CAT-213 (antibody, V domains shown)
VH: QVQLVQSGGGVVQPGRSLRLSCAASGFTFSSYGMHWVRQAPGKGLEWVAVISYDGSIKHYADSVKGRFTISRDNSKNTLYLQMNSLRTDDTAVYYCAGDTDYGDIDPWGQGTMVTVSS
VL: DIQMTQSPSSVSASVGDRVTITCRASQDISSWLAWYQQKPGKAPKLLIYAASSLQSGVPSRFSGSGSGTDFTLTISSLQPEDFATYYCQQASSFPSITFGQGTRLEIKR
notes: Expressed in NS0 cells and purified on Protein A
B2: Mouse eotaxin (ligand, UniProt P48298 24-97, looked up)
chain: HPGSIPTSCCFIMTSKKIPNTLLKSYKRITNNRCTLKAIVFKTRLGKEICADPKKKWVQDATKHLDQKLQTPKP
notes: also called murine eotaxin

What was measured:
Human eotaxin [1] = molecular target: T1, Human eotaxin (human, UniProt P51671 24-97, 125-iodine label in the Flash Plate assays; site not given); test: Flash Plate scintillation competition: soluble CAT-213 against coated CAT-212 (competitor) for [125I]eotaxin; mean of 4 estimates
T1 construct: treated as one molecule; also called eotaxin-1
Protocol: The Flash Plate assay was performed essentially as described in Example 6.

Rhesus monkey eotaxin = Rhesus monkey eotaxin (rhesus monkey, UniProt Q8MIT7 24-97, limits assumed); test: cell-based or functional assay
Human eotaxin [2] = molecular target: T1, Human eotaxin; test: cell-based or functional assay
Mouse eotaxin = molecular target: B2; test: cell-based or functional assay
CAT-212 = molecular target: T2, CAT-212; test: Flash Plate scintillation competition: unlabelled mouse eotaxin against [125I]eotaxin for coated CAT-212; mean of two estimates
T2 construct: Human scFv; IMAC-purified soluble scFv in the Western blot and Flash Plate assays; FPLC-purified monomeric scFv in the chemotaxis assay
Protocol: Flash Plate™ was prepared as described in Example 6. Eleven serial one in three dilutions of unlabelled human and mouse Eotaxin (R&D) in Assay Buffer and mixed with ¹²⁵I-Eotaxin prepared at an estimated concentration of 30 pM and 100 μl added to the wells in duplicate. The plate was sealed and incubated at room temperature for two hours, counted and the data processed as described in Example 6.

T1 sequence (P51671 24-97 limits assumed): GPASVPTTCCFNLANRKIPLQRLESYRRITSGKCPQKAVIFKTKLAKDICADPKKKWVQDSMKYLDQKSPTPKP
Sequence of Rhesus monkey eotaxin (Q8MIT7 24-97 limits assumed): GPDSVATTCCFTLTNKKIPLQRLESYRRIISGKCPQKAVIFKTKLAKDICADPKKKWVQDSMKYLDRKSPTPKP

Row | Binder | IC50 (Human eotaxin [1]) [nM] | geometric mean IC50, inhibition of rhesus monkey eotaxin-mediated chemotaxis of L1.2-CCR3 cells (Rhesus monkey eotaxin) [nM] | IC50, inhibition of eotaxin-mediated chemotaxis of CCR3-transfected L1.2 cells (Human eotaxin [2]) [nM] | geometric mean IC50, inhibition of eotaxin-evoked shape change of human eosinophils (Human eotaxin [2]) [nM] | geometric mean IC50, inhibition of eotaxin-mediated chemotaxis of human eosinophils (Human eotaxin [2]) [nM] | geometric mean IC50, inhibition of mouse eotaxin-mediated chemotaxis of L1.2-CCR3 cells (Mouse eotaxin) [nM] | IC50 (CAT-212) [nM]
1 | B1 | 0.0593 | 303 | 0.7 | 0.714 | 1.53 | 2630 | 
2 | B2 |  |  |  |  |  |  | 296
